Among the data in patent US20140087436 are activity values, retold here.

Changes are numbered by the printed parent chain.

Common to all, as to assay: cell_activity
In data set [1] the target is T1, CbbR E87K (Ralstonia eutropha) (UniProt P42722).
T1 sequence: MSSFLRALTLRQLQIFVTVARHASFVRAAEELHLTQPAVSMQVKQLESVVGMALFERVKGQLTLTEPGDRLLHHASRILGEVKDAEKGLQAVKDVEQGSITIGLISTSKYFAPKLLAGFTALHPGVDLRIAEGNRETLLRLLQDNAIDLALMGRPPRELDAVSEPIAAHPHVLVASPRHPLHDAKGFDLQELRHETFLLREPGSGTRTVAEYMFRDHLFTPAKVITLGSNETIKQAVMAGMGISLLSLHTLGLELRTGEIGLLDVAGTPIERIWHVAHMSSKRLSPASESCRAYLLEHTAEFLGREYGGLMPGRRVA
The settings on record: beta-galactosidase, chemoheterotrophic; chemoautotrophic 5515.

Data set [2] concerns the target T2, CbbR G205D (Ralstonia eutropha) (UniProt P42722).
T2 sequence: T1 sequence with K87E, G205D
The settings on record: beta-galactosidase, chemoheterotrophic; chemoautotrophic 2241.

The target in data set [3] is T3, CbbR G205D/R283H (Ralstonia eutropha) (UniProt P42722).
T3 sequence: T1 sequence with K87E, G205D, R283H
The settings on record: beta-galactosidase, chemoheterotrophic; chemoautotrophic 4480.

Data set [4] has as its target T4, CbbR T232I (Ralstonia eutropha) (UniProt P42722).
T4 sequence: T1 sequence with K87E, T232I
The settings on record: beta-galactosidase, chemoheterotrophic; chemoautotrophic 5005.

The target in data set [5] is T5, CbbR D144N (Ralstonia eutropha) (UniProt P42722).
T5 sequence: T1 sequence with K87E, D144N
The following applies: beta-galactosidase, chemoheterotrophic; chemoautotrophic 6932.

Data set [6] concerns the target T6, CbbR G125S/V265M (Ralstonia eutropha) (UniProt P42722).
T6 sequence: T1 sequence with K87E, G125S, V265M
The following applies: beta-galactosidase, chemoheterotrophic; chemoautotrophic 6770.

Data set [7] concerns the target T7, CbbR D148N (Ralstonia eutropha) (UniProt P42722).
T7 sequence: T1 sequence with K87E, D148N
The following applies: beta-galactosidase, chemoheterotrophic; chemoautotrophic 6442.

In data set [8] the target is T8, CbbR A117V (Ralstonia eutropha) (UniProt P42722).
T8 sequence: T1 sequence with K87E, A117V
The following applies: beta-galactosidase, chemoheterotrophic; chemoautotrophic 6793.

As to cbb promoter in lacZ reporter strain, the activity in data set [1] was determined as 1600 nmol/min/mg; in data set [2], 488 nmol/min/mg; in data set [3], 2310 nmol/min/mg; in data set [4], 303 nmol/min/mg; in data set [5], 809 nmol/min/mg; in data set [6] it was 53 nmol/min/mg. Moreover, the activity in data set [7] was found to be 343 nmol/min/mg; in data set [8], 254 nmol/min/mg.
